Results on six variants are retold here after PMC6683012.

The chains are these.
B1: SIRK1-cYFP [Arabidopsis] / QSK1-nYFP [Arabidopsis] (parent)
chain 1: VTETELRSLLEFRKGIRDETSHQRISWSDTSSLTDPSTCPNDWPGISCDPETGSIIAINLDRRGLSGELKFSTLSGLTRLRNLSLSGNSFSGRVVPSLGGISSLQHLDLSDNGFYGPIPGRISELWSLNHLNLSSNKFEGGFPSGFRNLQQLRSLDLHKNEIWGDVGEIFTELKNVEFVDLSCNRFNGGLSLPMENISSISNTLRHLNLSHNALNGKFFSEESIGSFKNLEIVDLENNQINGELPHFGSQPSLRILKLARNELFGLVPQELLQSSIPLLELDLSRNGFTGSISEINSSTLTMLNLSSNGLSGDLPSSFKSCSVIDLSGNTFSGDVSVVQKWEATPDVLDLSSNNLSGSLPNFTSAFSRLSVLSIRNNSVSGSLPSLWGDSQFSVIDLSSNKFSGFIPVSFFTFASLRSLNLSRNNLEGPIPFRGSRASELLVLNSYPQMELLDLSTNSLTGMLPGDIGTMEKIKVLNLANNKLSGELPSDLNKLSGLLFLDLSNNTFKGQIPNKLPSQMVGFNVSYNDLSGIIPEDLRSYPPSSFYPGNSKLSLPGRIPADSSGDLSLPGKKHHSKLSIRIAIIVASVGAAIMILFVLFAYHRTQLKDFHGRNRFTDQATTRDTKFGRSSRPSLFNFSSNVEQQSSSLSFSNDHLLTANSRSLSGIPGCEAEISEQGAPATSAPTNLLDDYPAASGRKSSSGGSPLSSSPRFSDQPVMLDVYSPDRLAGELFFLDVSLKLTAEELSRAPAEVLGRSSHGTLYKATLDNGHMLTVKWLRVGLVRHKKDFAREAKKIGSLKHPNIVPLRAYYWGPREQERLLLSDYLRGESLAMHLYETTPRRYSPMSFSQRLKVAVEVAQCLLYLHDRAMPHGNLKPTNIILSSPDNTVRITDYCVHRLMTPSGVAEQILNMSALGYSAPELSSASKPIPTLKSDVYAFGVILMELLTRRSAGDIISGQTGAVDLTDWVRLCDQEGRRMDCIDRDIAGGEEFSKGMEDALAVAIRCILSVNERPNIRQVLDHLTSISA
chain 2: SDLESDRRALLAVRNSVRGRPLLWNMSASSPCNWHGVHCDAGRVTALRLPGSGLFGSLPIGGIGNLTQLKTLSLRFNSLSGPIPSDFSNLVLLRYLYLQGNAFSGEIPSLLFTLPSIIRINLGENKFSGRIPDNVNSATRLVTLYLERNQLSGPIPEITLPLQQFNVSSNQLNGSIPSSLSSWPRTAFEGNTLCGKPLDTCEAESPNGGDAGGPNTPPEKKDSDKLSAGAIVGIVIGCVVGLLLLLLILFCLCRKRKKEENVPSRNVEAPVAAATSSAAIPKETVVVVPPAKATGSESGAVNKDLTFFVKSFGEFDLDGLLKASAEVLGKGTVGSSYKASFEHGLVVAVKRLRDVVVPEKEFRERLHVLGSMSHANLVTLIAYYFSRDEKLLVFEYMSKGSLSAILHGNKGNGRTPLNWETRAGIALGAARAISYLHSRDGTTSHGNIKSSNILLSDSYEAKVSDYGLAPIISSTSAPNRIDGYRAPEITDARKISQKADVYSFGVLILELLTGKSPTHQQLNEEGVDLPRWVQSVTEQQTPSDVLDPELTRYQPEGNENIIRLLKIGMSCTAQFPDSRPSMAEVTRLIEEVSHSSGSPNPVSD
B2: QSK1-nYFP [Arabidopsis] / SIRK1-cYFP [Arabidopsis] (parent)
chain 1: B1 chain 2
chain 2: B1 chain 1
B3: SIRK1-cYFP [Arabidopsis] / QSK2-nYFP [Arabidopsis] (parent)
chain 1: B1 chain 1
chain 2: DLEADRRALIALRDGVHGRPLLWNLTAPPCTWGGVQCESGRVTALRLPGVGLSGPLPIAIGNLTKLETLSFRFNALNGPLPPDFANLTLLRYLYLQGNAFSGEIPSFLFTLPNIIRINLAQNNFLGRIPDNVNSATRLATLYLQDNQLTGPIPEIKIKLQQFNVSSNQLNGSIPDPLSGMPKTAFLGNLLCGKPLDACPVNGTGNGTVTPGGKGKSDKLSAGAIVGIVIGCFVLLLVLFLIVFCLCRKKKKEQVVQSRSIEAAPVPTSSAAVAKESNGPPAVVANGASENGVSKNPAAVSKDLTFFVKSFGEFDLDGLLKASAEVLGKGTFGSSYKASFDHGLVVAVKRLRDVVVPEKEFREKLQVLGSISHANLVTLIAYYFSRDEKLVVFEYMSRGSLSALLHGNKGSGRSPLNWETRANIALGAARAISYLHSRDATTSHGNIKSSNILLSESFEAKVSDYCLAPMISPTSTPNRIDGYRAPEVTDARKISQKADVYSFGVLILELLTGKSPTHQQLHEEGVDLPRWVSSITEQQSPSDVFDPELTRYQSDSNENMIRLLNIGISCTTQYPDSRPTMPEVTRLIEEVSRSPASPGPLSD

The first experiment covers variants of B1. Nature of the experiment: ratiometric bimolecular fluorescence complementation (rBiFC). The conditions noted are these: with QSK1-nYFP [Arabidopsis]; n=10 cells (parent n=10); value is box-plot median; parent: 0.9; read off a plot.
Turning to chain 1 S723A, the response was found to be 0.18.

Regarding chain 1 S723D, the response worked out at 1.3.

The variants in the next experiment derive from B2. The experiment is described as above. The conditions noted are these: with SIRK1-cYFP [Arabidopsis]; n=14 cells (parent n=10); value is box-plot median; parent: 0.9; read off a plot.
Consider chain 1 S598A S603A, for which the response amounted to 1.

The same experiment, now with this note: with SIRK1-cYFP [Arabidopsis]; n=12 cells (parent n=10); value is box-plot median; parent: 0.9; read off a plot.
Regarding chain 1 S598D S603D, the response is 1.8.

Another experiment covers variants of B3. Described as above. The conditions noted are these: with QSK2-nYFP [Arabidopsis]; n=35 cells (parent n=32); value is box-plot median; parent: 1.6; read off a plot.
Turning to chain 1 S723D, the response is 1.7.

The experiment is the same for the next values; noted with them: with QSK2-nYFP [Arabidopsis]; n=34 cells (parent n=32); value is box-plot median; parent: 1.6; read off a plot.
Take chain 1 S723A: the response was determined as 0.15.
